Results taken from paper PMC2734569, “Functional mapping of the fission yeast DNA polymerase δ B-subunit Cdc1 by site-directed and random pentapeptide insertion mutagenesis” (BMC Molecular Biology, 2009).
Values belong to the binder of their own block, whether it stands above or below them.

Assays:
Details in all cases: partners not purified
Cdc1-J21 = target: T1, Cdc1-J21 (Schizosaccharomyces pombe, UniProt P87324 1-462, Leu-GlyValProGlnLeu-Asp); test: two-hybrid; LexA-Cdc1 bait (pBTM116 or pBTM116BN) with Gal4 activation domain-Cdc27 prey (pGAD2F-Cdc27) in S. cerevisiae CTY10-5d; ONPG liquid culture beta-galactosidase assay, mean of triplicates, as percent of wild-type Cdc1
T1 construct: Cdc1, S. pombe, with a pentapeptide inserted after residue 275; source: yeast two-hybrid fusion, in S. cerevisiae CTY10-5d
T1 sequence (looked up): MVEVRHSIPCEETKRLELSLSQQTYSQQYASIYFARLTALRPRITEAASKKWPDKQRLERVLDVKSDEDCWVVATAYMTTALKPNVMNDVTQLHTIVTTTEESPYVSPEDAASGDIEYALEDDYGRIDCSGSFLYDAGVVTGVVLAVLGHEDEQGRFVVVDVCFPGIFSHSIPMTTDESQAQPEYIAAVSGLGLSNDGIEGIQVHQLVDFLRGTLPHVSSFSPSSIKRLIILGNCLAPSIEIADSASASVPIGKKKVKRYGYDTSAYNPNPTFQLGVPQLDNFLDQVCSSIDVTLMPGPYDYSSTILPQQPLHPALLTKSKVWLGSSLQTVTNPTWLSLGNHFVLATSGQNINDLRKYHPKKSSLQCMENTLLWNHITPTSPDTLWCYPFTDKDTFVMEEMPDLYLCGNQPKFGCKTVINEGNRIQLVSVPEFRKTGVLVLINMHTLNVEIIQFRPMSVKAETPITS

Cdc1-E1 = target: T2, Cdc1-E1 (Schizosaccharomyces pombe, UniProt P87324 1-462, Ser-GlyValProGlnSer-Asp); test: two-hybrid; LexA-Cdc1 bait (pBTM116 or pBTM116BN) with Gal4-Pol3 prey and co-expressed c-myc-tagged Cdc27 (pAA-Cdc27) in S. cerevisiae CTY10-5d; ONPG liquid culture beta-galactosidase assay, mean of triplicates, as percent of wild-type Cdc1
T2 construct: Cdc1, S. pombe, with a pentapeptide inserted after residue 66; source: yeast two-hybrid fusion, in S. cerevisiae CTY10-5d
T2 sequence (looked up): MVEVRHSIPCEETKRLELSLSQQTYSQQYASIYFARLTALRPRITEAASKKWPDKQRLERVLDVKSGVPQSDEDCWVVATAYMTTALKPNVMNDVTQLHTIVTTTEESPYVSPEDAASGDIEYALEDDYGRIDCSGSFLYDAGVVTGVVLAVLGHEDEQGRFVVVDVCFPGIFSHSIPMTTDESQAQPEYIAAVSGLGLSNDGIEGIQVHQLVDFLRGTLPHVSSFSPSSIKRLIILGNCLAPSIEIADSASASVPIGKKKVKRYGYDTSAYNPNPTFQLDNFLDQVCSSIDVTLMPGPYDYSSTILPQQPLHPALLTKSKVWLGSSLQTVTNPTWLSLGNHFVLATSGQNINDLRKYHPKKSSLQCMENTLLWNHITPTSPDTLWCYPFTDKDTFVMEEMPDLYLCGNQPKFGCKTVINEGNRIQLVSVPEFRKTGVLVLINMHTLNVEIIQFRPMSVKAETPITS

Cdc1-A3 = target: T3, Cdc1-A3 (Schizosaccharomyces pombe, UniProt P87324 1-462, Asp296Ala); test: as above
T3 construct: Cdc1, S. pombe, point mutant; source: yeast two-hybrid fusion, in S. cerevisiae CTY10-5d
T3 sequence (looked up): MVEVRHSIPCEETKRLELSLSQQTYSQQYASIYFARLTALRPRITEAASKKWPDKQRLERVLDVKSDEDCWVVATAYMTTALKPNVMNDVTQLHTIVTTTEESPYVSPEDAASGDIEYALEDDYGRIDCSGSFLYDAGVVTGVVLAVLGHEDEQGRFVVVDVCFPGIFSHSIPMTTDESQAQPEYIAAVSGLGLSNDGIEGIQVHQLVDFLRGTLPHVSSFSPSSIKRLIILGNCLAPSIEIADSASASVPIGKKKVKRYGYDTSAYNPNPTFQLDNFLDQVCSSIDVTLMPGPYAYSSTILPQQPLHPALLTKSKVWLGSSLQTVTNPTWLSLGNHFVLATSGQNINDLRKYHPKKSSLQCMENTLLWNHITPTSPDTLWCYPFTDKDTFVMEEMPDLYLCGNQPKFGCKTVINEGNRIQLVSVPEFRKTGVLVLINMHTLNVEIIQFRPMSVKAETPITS

Cdc1-J12 = target: T4, Cdc1-J12 (Schizosaccharomyces pombe, UniProt P87324 1-462, Ser-GlyValProHisSer-Ile); test: as above
T4 construct: Cdc1, S. pombe, with a pentapeptide inserted after residue 7; source: yeast two-hybrid fusion, in S. cerevisiae CTY10-5d
T4 sequence (looked up): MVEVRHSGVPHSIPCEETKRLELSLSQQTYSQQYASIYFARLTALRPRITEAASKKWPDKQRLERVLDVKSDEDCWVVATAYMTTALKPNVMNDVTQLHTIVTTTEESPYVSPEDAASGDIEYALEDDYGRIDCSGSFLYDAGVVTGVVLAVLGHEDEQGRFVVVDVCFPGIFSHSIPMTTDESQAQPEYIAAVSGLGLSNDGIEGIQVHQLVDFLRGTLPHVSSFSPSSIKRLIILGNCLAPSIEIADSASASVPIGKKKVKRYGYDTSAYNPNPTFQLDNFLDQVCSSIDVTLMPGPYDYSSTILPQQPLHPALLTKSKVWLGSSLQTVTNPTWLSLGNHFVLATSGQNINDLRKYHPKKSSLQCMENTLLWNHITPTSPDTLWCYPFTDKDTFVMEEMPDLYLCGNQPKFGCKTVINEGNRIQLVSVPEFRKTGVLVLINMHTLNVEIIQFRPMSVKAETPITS

- two-hybrid beta-galactosidase activity, % of wild-type Cdc1 (Cdc1-J21): < 1%
B1: Cdc27 (fission yeast DNA polymerase delta C-subunit) (natural protein, Schizosaccharomyces pombe, UniProt P30261 1-372, looked up)
chain: MEEWRNFLDIKVINESSLVTVDNLSLQLDISSEKAQEYLNMFYQGNDFLYPIYLIHGQPIDDEINLEIDEESQPISNFPVLQYILCDKSSLQEKQSRLKSGYKTVIFALSSAPLSDFDELLPAVYEIREKDVLYKKEDADKYGFIFNENSVPRVLKKAPSTHSPQLSVPSKTSTIDKTDTRSTEKTKGKDIFSNARNQKGNSSRKNKKAPLENHKEKEPLLPKEEKLSEQAKRERDDLKNIMQLEDESVSTTSVHDSEDDNLDSNNFQLEIGTEAKSAAPDEPQEIIKSVSGGKRRGKRKVKKYATTKDEEGFLVTKEEEVWESFSEDENISTGTSNVVRNKPTTVNIATKKKNTAQSKPQQKSIMSFFGKK
notes: DNA polymerase delta C-subunit Cdc27, S. pombe; prey plasmid pGAD2F-Cdc27; also called pGAD2F-Cdc27; source: yeast two-hybrid fusion, in S. cerevisiae CTY10-5d

- two-hybrid beta-galactosidase activity, % of wild-type Cdc1 (Cdc1-E1): 65%
- two-hybrid beta-galactosidase activity, % of wild-type Cdc1 (Cdc1-A3): < 1%
- two-hybrid beta-galactosidase activity, % of wild-type Cdc1 (Cdc1-J12): < 1%
B2: Pol3 (fission yeast DNA polymerase delta catalytic subunit) (natural protein, Schizosaccharomyces pombe, UniProt P30316 1-1086, looked up)
chain: MTDRSSNEGVVLNKENYPFPRRNGSIHGEITDVKRRRLSERNGYGDKKGSSSKEKTSSFEDELAEYASQLDQDEIKSSKDQQWQRPALPAINPEKDDIYFQQIDSEEFTEGSVPSIRLFGVTDNGNSILVHVVGFLPYFYVKAPVGFRPEMLERFTQDLDATCNGGVIDHCIIEMKENLYGFQGNEKSPFIKIFTTNPRILSRARNVFERGEFNFEELFPVGVGVTTFESNTQYLLRFMIDCDVVGMNWIHLPASKYQFRYQNRVSNCQIEAWINYKDLISLPAEGQWSKMAPLRIMSFDIECAGRKGVFPDPSIDPVIQIASIVTQYGDSTPFVRNVFCVDTCSQIVGTQVYEFQNQAEMLSSWSKFVRDVDPDVLIGYNICNFDIPYLLDRAKSLRIHNFPLLGRIHNFFSVAKETTFSSKAYGTRESKTTSIPGRLQLDMLQVMQRDFKLRSYSLNAVCSQFLGEQKEDVHYSIITDLQNGTADSRRRLAIYCLKDAYLPQRLMDKLMCFVNYTEMARVTGVPFNFLLARGQQIKVISQLFRKALQHDLVVPNIRVNGTDEQYEGATVIEPIKGYYDTPIATLDFSSLYPSIMQAHNLCYTTLLDSNTAELLKLKQDVDYSVTPNGDYFVKPHVRKGLLPIILADLLNARKKAKADLKKETDPFKKAVLDGRQLALKVSANSVYGFTGATNGRLPCLAISSSVTSYGRQMIEKTKDVVEKRYRIENGYSHDAVVIYGDTDSVMVKFGVKTLPEAMKLGEEAANYVSDQFPNPIKLEFEKVYFPYLLISKKRYAGLFWTRTDTYDKMDSKGIETVRRDNCPLVSYVIDTALRKMLIDQDVEGAQLFTKKVISDLLQNKIDMSQLVITKALSKTDYAAKMAHVELAERMRKRDAGSAPAIGDRVAYVIIKGAQGDQFYMRSEDPIYVLENNIPIDAKYYLENQLSKPLLRIFEPILGEKASSLLHGDHTRTISMAAPSVGGIMKFAVKVETCLGCKAPIKKGKTALCENCLNRSAELYQRQVAQVNDLEVRFARLWTQCQRCQGSMHQDVICTSRDCPIFYMRIAEHKKLQQSVDLLKRFDEMSW
notes: DNA polymerase delta catalytic subunit Pol3, S. pombe; prey plasmid named pACT-Pol3 in the results and pGAD2F-Pol3 in the methods; also called Gal4-Pol3; pACT-Pol3; source: yeast two-hybrid fusion, in S. cerevisiae CTY10-5d
